Experimental findings from US20240084042A1 (Genentech, published 2024) are described below.

Where only a bound is given, the exact number is not on record here.

Assay [1] addresses huKLK4 (human, UniProt Q9Y5K2 31-254, limits assumed). As to the kind of experiment: SPR (BIAcore T200), as for Table 1.
In assay [2] the target is T1, huKLK11 (human, UniProt Q9UBX7 54-282, limits assumed).
T1 sequence (looked up): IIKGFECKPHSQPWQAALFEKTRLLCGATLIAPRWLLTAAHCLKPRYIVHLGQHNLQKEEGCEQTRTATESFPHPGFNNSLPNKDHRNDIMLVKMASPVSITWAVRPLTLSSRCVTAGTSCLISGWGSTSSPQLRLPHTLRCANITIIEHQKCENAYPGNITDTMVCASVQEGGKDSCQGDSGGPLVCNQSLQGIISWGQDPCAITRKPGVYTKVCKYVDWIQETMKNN
As to the kind of experiment: SPR (BIAcore T200), as for Table 1.

Assay [3] addresses T2, human KLK5 (human, UniProt Q9Y337 67-293).
T2 construct: also called huKLK5; KLK5 AMC
T2 sequence: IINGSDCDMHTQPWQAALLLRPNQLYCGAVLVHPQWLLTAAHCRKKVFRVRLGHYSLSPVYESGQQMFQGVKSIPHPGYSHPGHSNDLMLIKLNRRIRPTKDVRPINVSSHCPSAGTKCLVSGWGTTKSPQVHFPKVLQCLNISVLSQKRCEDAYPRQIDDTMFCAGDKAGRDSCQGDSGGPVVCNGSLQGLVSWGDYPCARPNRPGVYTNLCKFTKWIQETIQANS
As to the kind of experiment: SPR (BIAcore T200), as for Table 1.

Assay [4] concerns the target huKLK1 (human, UniProt P06870 25-262, limits assumed). As to the kind of experiment: SPR (BIAcore T200), as for Table 1.
The target in assay [5] is T3, cynomolgus monkey KLK7 (cynomolgus monkey, UniProt P49862 30-253 (human entry)).
T3 construct: Antigen injected in SPR; also called Cy KLK7; cyno KLK7
As to the kind of experiment: SPR BIAcore T200, antibody on protein A chip, 25 C. How it is done:
(§1) The binding affinity of the antibodies was determined by BIAcore™ T200 machine. Rabbit antibodies were recombinantly expressed. For kinetics measurements, antibodies were captured on research grade protein A chip (GE Healthcare, USA) to achieve approximately 300 RU. Ten-fold serial dilutions of human and cyano KLK7 were injected in HBS-P buffer at 25° C. with a flow rate of 30 μL/min. Association rates (ka) and dissociation rates (kd) were calculated using a 1:1 Langmuir binding model (BIAcore™ T200 Evaluation Software version 2.0). The equilibrium dissociation constant (KD) was calculated as the ratio kd/ka.

The target of assay [6] is T4, human KLK7 (human, UniProt P49862 30-253).
T4 construct: Antigen injected in SPR; also called hu KLK7; huKLK7
As to the kind of experiment: SPR BIAcore T200, antibody on protein A chip, 25 C. As for the experimental part:
as §1

Assay [7] deals with T5, human KLK7 (SEQ ID NO: 4 plus a C-terminal FLAG tag) (human, UniProt P49862 30-253). As to the kind of experiment: cell-based or functional assay.
The target in assay [8] is T6, cyano KLK7 (SEQ ID NO: 6 plus a C-terminal FLAG tag) (cynomolgus monkey, UniProt P49862 30-253 (human entry)). As to the kind of experiment: cell-based or functional assay.
For assay [9], the target named is T5, human KLK7 (SEQ ID NO: 4 plus a …). As to the kind of experiment: cell-based or functional assay. The source holds these as a separate data set.
Assay [10] deals with T2, human KLK5. As to the kind of experiment: cell-based or functional assay.
Assay [11] has as its target T3, cynomolgus monkey KLK7. As to the kind of experiment: kinetics of bispecific antibody, method not restated (SPR implied).
Assay [12] addresses T4, human KLK7. The description is as above.
The target of assay [13] is T6, cyano KLK7 (SEQ ID NO: 6 plus a …). As to the kind of experiment: cell-based or functional assay. The source holds these as a separate data set.
Assay [14] concerns the target T7, cynomolgus monkey KLK5 (cynomolgus monkey, UniProt Q9Y337 67-293 (human entry)).
T7 chain: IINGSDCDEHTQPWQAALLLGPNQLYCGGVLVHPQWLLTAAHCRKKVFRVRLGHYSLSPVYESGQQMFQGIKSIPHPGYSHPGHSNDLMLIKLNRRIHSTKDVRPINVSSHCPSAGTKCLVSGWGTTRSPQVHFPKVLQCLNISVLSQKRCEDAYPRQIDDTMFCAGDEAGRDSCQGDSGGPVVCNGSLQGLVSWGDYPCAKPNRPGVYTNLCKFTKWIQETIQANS
As to the kind of experiment: cell-based or functional assay.

The target in assay [15] is T2, human KLK5. As to the kind of experiment: kinetics of bispecific antibody, method not restated (SPR implied).
Assay [16] deals with T7, cynomolgus monkey KLK5. Described as above.

T4 sequence (P49862 30-253): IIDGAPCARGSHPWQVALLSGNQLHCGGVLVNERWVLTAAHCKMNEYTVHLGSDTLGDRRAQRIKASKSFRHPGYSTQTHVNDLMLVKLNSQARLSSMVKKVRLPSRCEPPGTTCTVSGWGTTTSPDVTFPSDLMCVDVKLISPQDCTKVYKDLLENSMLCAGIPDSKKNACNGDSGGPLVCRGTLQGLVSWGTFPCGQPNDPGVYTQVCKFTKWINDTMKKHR
T3 sequence (P49862 other isoform, or with tags, fused parts or gaps): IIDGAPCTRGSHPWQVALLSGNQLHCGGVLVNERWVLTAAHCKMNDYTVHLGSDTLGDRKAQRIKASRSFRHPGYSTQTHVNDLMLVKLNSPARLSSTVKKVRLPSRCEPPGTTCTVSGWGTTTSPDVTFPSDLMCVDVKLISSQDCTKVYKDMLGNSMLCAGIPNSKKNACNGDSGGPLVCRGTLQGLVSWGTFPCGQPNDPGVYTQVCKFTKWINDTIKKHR
T5 sequence (P49862 30-253): as the sequence (P49862 30-253) above
T6 sequence (P49862 other isoform, or with tags, fused parts or gaps): as the sequence (P49862 other isoform, or with tags, fused parts or gaps) above
huKLK1, sequence (P06870 25-262 limits assumed): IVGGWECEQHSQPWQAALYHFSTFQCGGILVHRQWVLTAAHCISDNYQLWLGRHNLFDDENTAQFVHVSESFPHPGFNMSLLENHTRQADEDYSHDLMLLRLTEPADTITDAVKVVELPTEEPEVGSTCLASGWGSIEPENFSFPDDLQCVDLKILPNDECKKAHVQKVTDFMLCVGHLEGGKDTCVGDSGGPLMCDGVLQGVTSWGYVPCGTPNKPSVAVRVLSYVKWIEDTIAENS
huKLK4, sequence (Q9Y5K2 31-254 limits assumed): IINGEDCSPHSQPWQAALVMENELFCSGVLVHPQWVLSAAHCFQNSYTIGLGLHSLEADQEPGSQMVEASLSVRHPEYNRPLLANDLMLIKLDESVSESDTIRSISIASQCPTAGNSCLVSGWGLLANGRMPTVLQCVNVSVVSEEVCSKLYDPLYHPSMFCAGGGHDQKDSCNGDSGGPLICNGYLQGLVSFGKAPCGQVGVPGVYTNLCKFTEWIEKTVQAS

B1: 14H11 (antibody, V domains shown)
VH: QSLEESGGDLVKPGASLTLTCTASGFSFSSSYYMCWVRQAPGKGLEWIASIYAGSSGAPYYAGWAKGRFTISKTSSTAVTLQMSSLTAADTATYFCAREGFAETGGYGYAAYFNLWGPGTLVTVSS
VL: AIEMTQSPPSLSASVGETVRIRCLASEDIASSVSWYQQKPGKPPTLLIYGASNLESGVPPRFTGSGSGTDYTLTIGGVQAEDAATYYCLGGYSYSSTGTAFGAGTKVEIK
notes: Recombinant rabbit anti-KLK7 monoclonal antibody, expressed in Expi293 cells, protein A purified, bivalent; also called rb.14H11
For the molecule B1, the binding result in assay [1], in assay [2], in assay [3] and in assay [4] was “no binding” in each case. In addition, the koff in assay [5] and in assay [6] was less than 1e-06 s⁻¹ each time. Besides, the “IC50, KLK7 direct functional assay (Mca peptide substrate), bivalency not accounted for” value in assay [7] is 110 pM; in [8] it was 150 pM.

B2: hu.10C5VY.hu14H11c.L2H11 LS (bispecific antibody, human IgG1, kappa, N297G)
heavy 1: EQQLVESGGGLIQPGGSLRLSCAASGFSFSSSYYMSWVREAPGKGLEWVSSIYAGSSGAPYYAGWAKGRFTISRDNSKNTLYLQMNSLRAEDTAVYYCAREGFAETGGYGYAAYFNLWGPGTLVTVSSASTKGPSVFPLAPSSKSTSGGTAALGCLVKDYFPEPVTVSWNSGALTSGVHTFPAVLQSSGLYSLKSVVTVPSSSLGTQTYICNVNHKPSNTKVDKKVEPKSCDKTHTCPPCPAPELLGGPSVFLFPPKPKDTLMISRTPEVTCVVVDVSHEDPEVKFNWYVDGVEVHNAKTKPREEQYGSTYRVVSVLTVLHQDWLNGKEYKCKVSNKALPAPIEKTISKAKGQPREPQVYTLPPSREEMTKNQVSLWCLVKGFYPSDIAVEWESNGQPENNYKTTPPVLDSDGSFFLYSKLTVDKSRWQQGNVFSCSVLHEALHSHYTQKSLSLSPGK
light 1: DIQMTQSPSSLSASVGDRVTITCLASEDIASSVSWYQKKPGKAPKLLIYGASNLESGVPSRFSGSGSGTDYTLTISSLQPEDFATYYCLGGYSYSSTGTAFGGGTKVEIKRTVAAPSVFIFPPSDEQLKSGTASVECLLNNFYPREAKVQWKVDNALQSGNSQESVTEQDSKDSTYSLSSTLTLSKADYEKHKVYACEVTHQGLSSPVTKSFNRGEC
heavy 2: EVQLVESGGGLVQPGGSLRLSCAASGFSLSSYGVTWVRKAPGKGLEWIGYITSVYGVSYYASWAKSRSTISRDTSKNTVYLQMGSLRAEDMAVYYCARENPDYGYAYDAWGQGTTVTVSSASTKGPSVFPLAPSSKSTSGGTAALGCLVKDYFPEPVTVSWNSGALTSGVHTFPAVLQSSGLYSLESVVTVPSSSLGTQTYICNVNHKPSNTKVDKKVEPKSCDKTHTCPPCPAPELLGGPSVFLFPPKPKDTLMISRTPEVTCVVVDVSHEDPEVKFNWYVDGVEVHNAKTKPREEQYGSTYRVVSVLTVLHQDWLNGKEYKCKVSNKALPAPIEKTISKAKGQPREPQVYTLPPSREEMTKNQVSLSCAVKGFYPSDIAVEWESNGQPENNYKTTPPVLDSDGSFFLVSKLTVDKSRWQQGNVFSCSVLHEALHSHYTQKSLSLSPGK
light 2: AIRMTQSPSSFSASTGDRVTITCQASESISNELSWYQEKPGKAPKLLIYYASTLASGVPSRFSGSGSGTDFTLTISSLQPEDFATYYCAQGYGSSGVENVFGGGTKVEIKRTVAAPSVFIFPPSDEQLKSGTASVKCLLNNFYPREAKVQWKVDNALQSGNSQESVTEQDSKDSTYSLSSTLTLSKADYEKHKVYACEVTHQGLSSPVTKSFNRGEC
notes: hIgG1 N297G knob-in-hole bispecific with M428L/N434S and the chain pairing mutations; also called anti-KLK5/KLK7 bispecific antibody with M428L/N434S (LS)
B2: the “IC50, KLK7 direct functional assay (Mca-RPKPVE-Nval-WRK(Dnp)), bivalency corrected” value in assay [9] was found to be 340 pM; in assay [13], 360 pM. The “IC50, KLK5 direct functional assay (Boc-Val-Pro-Arg-AMC), bivalency corrected” value in [10] was found to be 540 pM; in [14] it was 580 pM. Further, the dissociation constant (Kd) in [11] was 3 pM; in [12], 0.24 pM; in [15], 1.5 pM; in [16], 16 pM. The koff stood at 7e-05 s⁻¹ in assay [11], 1.4e-05 s⁻¹ in [12], 1.97e-05 s⁻¹ in [15] and 0.00018 s⁻¹ in assay [16]. In addition, the kon stood at 3e+07 M⁻¹ s⁻¹ in [11], 5.7e+07 M⁻¹ s⁻¹ in assay [12], 1.5e+07 M⁻¹ s⁻¹ in assay [15] and 1.11e+07 M⁻¹ s⁻¹ in [16].
